Experimental data: PMC11148769 (Cell Reports Medicine, 2024)

Target: T1, BA.2.12.1 S trimer (SARS-CoV-2, Omicron BA.2.12.1, strain)
T1 construct: also called BA.2.12.1 spike
Assay: cryo-EM structure
Details: both partners purified

B1: XBB-4 Fab (Fab, V domains shown)
VH: EVQLVQSGGGLVKPGGSLRLSCAASGFSFTNAWMNWVRQAPGKGLEWVGRIKSKADGGTTDYAAPVKGKFTISRDDSKNTLYLQMNSLKTEDTAIYYCTSDVYDFSTGFGQRDDFDYWGQGTLVTVSS
VL: DIVMTQSPSSLSASVGDRVTITCRASQSISYFLNWYQQKPGKAPKLLISAASSLQSGVPSRFSGSGSGTDFTLTISSLQPEDFATYYCQQSYSSLITFGGGTKVEIK
  stoichiometry N: 3 Fabs per S trimer
